System: HepG2 liver carcinoma cells
Experiment: Cytotoxicity, cell viability by CCK-8 kit
Assay type: cell-based
Conditions: about 5,000 HepG2 cells, 37° C., 46 hours
Procedure: The liposomes prepared in the same manner as in Example 1 were incubated with cells to confirm cell proliferation.
The liposomes prepared in the same manner as in Example 1 were added in different concentrations to about 5,000 HepG2 liver carcinoma cells, followed by being incubated at a temperature of 37° C. for 46 hours. The viability of the cultured cells was measured using a CCK-8 kit (Dojindo), and the results were shown in FIG. 7 (●: albumin, ▪: complex containing SRF and albumin).

Substance: albumin: albumin alone, control in the cytotoxicity test; Bovine Serum Albumin in Example 1
- toxicity (cell viability): not toxic

Reference: patent US9457082B2, “Liposome including complex of hydrophobic active ingredient and polypeptide and use of the liposome” (Samsung Electronics Co., Ltd., priority 2013, dated 2016)
